Experimental data as given in patent publication US20230140797A1 (published 2023).
Like-named read-outs stand apart in the source and are kept apart here. Blank lines part the entries; values can stand above or below the binder they belong to.

Columns and labels:
[1] = biological target: T1, human FcγRIIa type H extracellular domain with C-terminal His tag (human, UniProt P12318 34-217); assay: SPR
T1 sequence (looked up): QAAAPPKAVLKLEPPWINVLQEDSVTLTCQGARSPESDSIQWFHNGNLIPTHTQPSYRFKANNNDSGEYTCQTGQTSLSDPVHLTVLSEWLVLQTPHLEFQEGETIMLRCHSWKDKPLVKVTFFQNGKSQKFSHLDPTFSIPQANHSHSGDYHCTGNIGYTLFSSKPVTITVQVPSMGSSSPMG

[2] = biological target: human FcγRIIIa type V extracellular domain with C-terminal His tag (human, UniProt P08637 17-208); assay: SPR
[3] = biological target: T2, human FcγRIIb extracellular domain with C-terminal His tag (human, UniProt P31994 43-217); assay: ratio of SPR KDs
T2 sequence (looked up): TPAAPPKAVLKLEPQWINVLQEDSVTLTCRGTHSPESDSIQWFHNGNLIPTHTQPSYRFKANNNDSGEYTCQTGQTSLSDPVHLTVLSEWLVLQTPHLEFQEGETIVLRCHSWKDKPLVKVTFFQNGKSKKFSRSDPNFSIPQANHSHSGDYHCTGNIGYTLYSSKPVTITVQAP

[4] = biological target: T3, human FcγRIIa type R (131Arg) extracellular domain with C-terminal His tag (human, UniProt P12318 34-217); assay: SPR
T3 sequence (looked up): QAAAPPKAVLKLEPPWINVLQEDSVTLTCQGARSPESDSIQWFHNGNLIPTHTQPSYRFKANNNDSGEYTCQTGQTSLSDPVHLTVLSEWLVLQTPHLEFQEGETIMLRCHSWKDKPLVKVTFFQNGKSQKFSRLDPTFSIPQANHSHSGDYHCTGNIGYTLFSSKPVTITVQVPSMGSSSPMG

[5] = biological target: T2, human FcγRIIb extracellular domain with …; assay: ratio of SPR KDs; remark: listed apart in the source
[6] = biological target: T2, human FcγRIIb extracellular domain with …; assay: ratio of SPR KDs; remark: listed apart in the source
[7] = biological target: T4, human FcγRIIa type H (131His) extracellular domain with C-terminal His tag (human, UniProt P12318 34-217); assay: SPR
T4 sequence (looked up): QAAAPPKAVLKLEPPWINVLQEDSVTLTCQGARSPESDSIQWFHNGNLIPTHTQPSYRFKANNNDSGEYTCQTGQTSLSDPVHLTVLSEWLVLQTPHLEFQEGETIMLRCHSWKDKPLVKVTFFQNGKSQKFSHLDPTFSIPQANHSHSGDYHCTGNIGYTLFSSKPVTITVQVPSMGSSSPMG

[8] = biological target: T4, human FcγRIIa type H (131His) …; assay: SPR; remark: listed apart in the source

Chain of human FcγRIIIa type V extracellular domain with C-terminal His tag (P08637 17-208 F176V): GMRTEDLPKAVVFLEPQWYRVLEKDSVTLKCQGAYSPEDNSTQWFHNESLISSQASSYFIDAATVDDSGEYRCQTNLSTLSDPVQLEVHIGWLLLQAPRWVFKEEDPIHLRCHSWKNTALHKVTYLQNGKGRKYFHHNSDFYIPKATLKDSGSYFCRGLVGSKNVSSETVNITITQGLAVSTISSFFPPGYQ

B1: IL6R-BP204/IL6R-L (antibody, human IgG1, kappa)
heavy: QVQLQESGPGLVKPSETLSLTCAVSGHSISHDHAWSWVRQPPGEGLEWIGFISYSGITNYNPSLQGRVTISRDNSKNTLYLQMNSLRAEDTAVYYCARSLARTTAMDYWGEGTLVTVSSASTKGPSVFPLAPSSKSTSGGTAALGCLVKDYFPEPVTVSWNSGALTSGVHTFPAVLQSSGLYSLSSVVTVPSSSLGTQTYICNVNHKPSNTKVDKKVEPKSCDKTHTCPPCPAPDLLGGDSVFLFPPKPKDTLMISRTPEVTCVVVDVSHEDGEVKFNWYVDGVEVHNAKTKPREEQYNSTYRVVSVLTVLHQDWLNGKEYKCKVSNAALPRPIEKTISKAKGQPREPQVYTLPPSRDELTKNQVSLTCLVKGFYPSDIAVEWESNGQPENNYKTTPPVLDSDGSFFLYSKLTVDKSRWQQGNVFSCSVMHEALHNHYTQESLSLSP
light: not shown
Kd [1]: 2100 nM

B2: IL6R-BP480/IL6R-L (antibody, human IgG1, kappa)
heavy: QVQLQESGPGLVKPSETLSLTCAVSGHSISHDHAWSWVRQPPGEGLEWIGFISYSGITNYNPSLQGRVTISRDNSKNTLYLQMNSLRAEDTAVYYCARSLARTTAMDYWGEGTLVTVSSASTKGPSVFPLAPSSKSTSGGTAALGCLVKDYFPEPVTVSWNSGALTSGVHTFPAVLQSSGLYSLSSVVTVPSSSLGTQTYICNVNHKPSNTKVDKKVEPKSCDKTHTCPPCPAPDLLGDDSVFLFPPKPKDTLMISRTPEVTCVVVDLSEDDGEVKFNWYVDGVEVHNAKTKPREEQYNSTYRVVSVLTVLHQDWLNGKEYKCKVSNKALPAPIEKTISKAKGQPREPQVYTLPPSRDELTKNQVSLTCLVKGFYPSDIAVEWESNGQPENNYKTTPPVLDSDGSFFLYSKLTVDKSRWQQGNVFSCSVMHEALHNHYTQESLSLSP
light: not shown
Kd [2]: 40000 nM

B4: IL6R-BP483/IL6R-L (antibody, human IgG1, kappa)
heavy: QVQLQESGPGLVKPSETLSLTCAVSGHSISHDHAWSWVRQPPGEGLEWIGFISYSGITNYNPSLQGRVTISRDNSKNTLYLQMNSLRAEDTAVYYCARSLARTTAMDYWGEGTLVTVSSASTKGPSVFPLAPSSKSTSGGTAALGCLVKDYFPEPVTVSWNSGALTSGVHTFPAVLQSSGLYSLSSVVTVPSSSLGTQTYICNVNHKPSNTKVDKKVEPKSCDKTHTCPPCPAPDLLGDDSVFLFPPKPKDTLMISRTPEVTCVVVDLAEEDGEVKFNWYVDGVEVHNAKTKPREEQYNSTYRVVSVLTVLHQDWLNGKEYKCKVSNKALPAPIEKTISKAKGQPREPQVYTLPPSRDELTKNQVSLTCLVKGFYPSDIAVEWESNGQPENNYKTTPPVLDSDGSFFLYSKLTVDKSRWQQGNVFSCSVMHEALHNHYTQESLSLSP
light: not shown
Kd [4]: 13 nM
KD (IIaR)/KD (IIb) [5]: 16
KD (IIaH)/KD (IIb) [6]: 230

B7: IL6R-BP209/IL6R-L (antibody, human IgG1, kappa)
heavy: QVQLQESGPGLVKPSETLSLTCAVSGHSISHDHAWSWVRQPPGEGLEWIGFISYSGITNYNPSLQGRVTISRDNSKNTLYLQMNSLRAEDTAVYYCARSLARTTAMDYWGEGTLVTVSSASTKGPSVFPLAPSSKSTSGGTAALGCLVKDYFPEPVTVSWNSGALTSGVHTFPAVLQSSGLYSLSSVVTVPSSSLGTQTYICNVNHKPSNTKVDKKVEPKSCDKTHTCPPCPAPELLGDDSVFLFPPKPKDTLMISRTPEVTCVVVDVSDEDGEVKFNWYVDGVEVHNAKTKPREEQYNSTYRVVSVLTVLHQDWLNGKEYKCKVSNAALPRPIEKTISKAKGQPREPQVYTLPPSRDELTKNQVSLTCLVKGFYPSDIAVEWESNGQPENNYKTTPPVLDSDGSFFLYSKLTVDKSRWQQGNVFSCSVMHEALHNHYTQESLSLSP
light: not shown
Kd [1]: 1000 nM

Further lines, results first:

KD (IIb) of parent polypeptide/KD (IIb) of altered polypeptide [3]: 166
B3: IL6R-BP496/IL6R-L (antibody, human IgG1, kappa)
heavy: QVQLQESGPGLVKPSETLSLTCAVSGHSISHDHAWSWVRQPPGEGLEWIGFISYSGITNYNPSLQGRVTISRDNSKNTLYLQMNSLRAEDTAVYYCARSLARTTAMDYWGEGTLVTVSSASTKGPSVFPLAPSSKSTSGGTAALGCLVKDYFPEPVTVSWNSGALTSGVHTFPAVLQSSGLYSLSSVVTVPSSSLGTQTYICNVNHKPSNTKVDKKVEPKSCDKTHTCPPCPAPDLLGDDSVFLFPPKPKDTLMISRTPEVTCVVIDVAEEDGEVKFNWYVDGVEVHNAKTKPREEQDNSTYRVVSVLTVLHQDWLNGKEYKCKVSNKALPAPIEKTISKAKGQPREPQVYTLPPSRDELTKNQVSLTCLVKGFYPSDIAVEWESNGQPENNYKTTPPVLDSDGSFFLYSKLTVDKSRWQQGNVFSCSVMHEALHNHYTQESLSLSP
light: not shown

KD (IIaR)/KD (IIb) [5]: 30.3
Kd [2]: 30000 nM
Kd [7]: 15000 nM
KD (IIaH)/KD (IIb) [6]: 670
B5: IL6R-BP492/IL6R-L (antibody, human IgG1, kappa)
heavy: QVQLQESGPGLVKPSETLSLTCAVSGHSISHDHAWSWVRQPPGEGLEWIGFISYSGITNYNPSLQGRVTISRDNSKNTLYLQMNSLRAEDTAVYYCARSLARTTAMDYWGEGTLVTVSSASTKGPSVFPLAPSSKSTSGGTAALGCLVKDYFPEPVTVSWNSGALTSGVHTFPAVLQSSGLYSLSSVVTVPSSSLGTQTYICNVNHKPSNTKVDKKVEPKSCDKTHTCPPCPAPELLGGDSVFLFPPKPKDTLMISRTPEVTCVVIDVAEEDGEVKFNWYVDGVEVHNAKTKPREEQYNSTYRVVSVLTVLHQDWLNGKEYKCKVSNKALPAPIEKTISKAKGQPREPQVYTLPPSRDELTKNQVSLTCLVKGFYPSDIAVEWESNGQPENNYKTTPPVLDSDGSFFLYSKLTVDKSRWQQGNVFSCSVMHEALHNHYTQESLSLSP
light: not shown

Kd [8]: 40 nM
KD (IIaR)/KD (IIb) [5]: 33.3
B6: IL6R-BP487/IL6R-L (antibody, human IgG1, kappa)
heavy: QVQLQESGPGLVKPSETLSLTCAVSGHSISHDHAWSWVRQPPGEGLEWIGFISYSGITNYNPSLQGRVTISRDNSKNTLYLQMNSLRAEDTAVYYCARSLARTTAMDYWGEGTLVTVSSASTKGPSVFPLAPSSKSTSGGTAALGCLVKDYFPEPVTVSWNSGALTSGVHTFPAVLQSSGLYSLSSVVTVPSSSLGTQTYICNVNHKPSNTKVDKKVEPKSCDKTHTCPPCPAPDLLGDDSVFLFPPKPKDTLMISRTPEVTCVVIDVAEEDGEVKFNWYVDGVEVHNAKTKPREEQYNSTYRVVSVLTVLHQDWLNGKEYKCKVSNKALPRPIEKTISKAKGQPREPQVYTLPPSRDELTKNQVSLTCLVKGFYPSDIAVEWESNGQPENNYKTTPMVLDSDGSFFLYSKLTVDKSRWQQGNVFSCSVMHEALHNHYTQESLSLSP
light: not shown

Kd [8]: 1800 nM
KD (IIaH)/KD (IIb) [6]: 865
B8: IL6R-BP488/IL6R-L (antibody, human IgG1, kappa)
heavy: QVQLQESGPGLVKPSETLSLTCAVSGHSISHDHAWSWVRQPPGEGLEWIGFISYSGITNYNPSLQGRVTISRDNSKNTLYLQMNSLRAEDTAVYYCARSLARTTAMDYWGEGTLVTVSSASTKGPSVFPLAPSSKSTSGGTAALGCLVKDYFPEPVTVSWNSGALTSGVHTFPAVLQSSGLYSLSSVVTVPSSSLGTQTYICNVNHKPSNTKVDKKVEPKSCDKTHTCPPCPAPDLLGDDSVFLFPPKPKDTLMISRTPEVTCVVIDVAEEDGEVKFNWYVDGVEVHNAKTKPREEQDNSTYRVVSVLTVLHQDWLNGKEYKCKVSNKALPRPIEKTISKAKGQPREPQVYTLPPSRDELTKNQVSLTCLVKGFYPSDIAVEWESNGQPENNYKTTPPVLDSDGSFFLYSKLTVDKSRWQQGNVFSCSVMHEALHNHYTQESLSLSP
light: not shown

KD (IIb) of parent polypeptide/KD (IIb) of altered polypeptide [3]: 1020
KD (IIaR)/KD (IIb) [5]: 38.3
B9: IL6R-BP491/IL6R-L (antibody, human IgG1, kappa)
heavy: QVQLQESGPGLVKPSETLSLTCAVSGHSISHDHAWSWVRQPPGEGLEWIGFISYSGITNYNPSLQGRVTISRDNSKNTLYLQMNSLRAEDTAVYYCARSLARTTAMDYWGEGTLVTVSSASTKGPSVFPLAPSSKSTSGGTAALGCLVKDYFPEPVTVSWNSGALTSGVHTFPAVLQSSGLYSLSSVVTVPSSSLGTQTYICNVNHKPSNTKVDKKVEPKSCDKTHTCPPCPAPELLGDDSVFLFPPKPKDTLMISRTPEVTCVVIDVAEEDGEVKFNWYVDGVEVHNAKTKPREEQDNSTYRVVSVLTVLHQDWLNGKEYKCKVSNKALPRPIEKTISKAKGQPREPQVYTLPPSRDELTKNQVSLTCLVKGFYPSDIAVEWESNGQPENNYKTTPPVLDSDGSFFLYSKLTVDKSRWQQGNVFSCSVMHEALHNHYTQESLSLSP
light: not shown
